Measured values reported in patent US10683329B2, “Dual-site BACE1 inhibitors” (priority 2014, dated 2020).
*1 amine or outer side, *2 acyl side, *3 side chain or, on linkers, in order; H or OH if unused. Where no end group is shown, it is not given here. [ ]: non-standard residue; d: D form. The star is where a group is joined. MetSta(3S,4S) = CSCC[C@H](N[*:1])[C@@H](O)CC(=O)[*:2]; Sta = CC(C)C[C@H](N)[C@@H](O)CC(=O)O; PEG4 = NCCOCCOCCOCCOCCC(=O)O; Lauroyl = CCCCCCCCCCCC(=O)*; PEG3 = NCCOCCOCCOCCC(=O)O

B1: Tyr-Pro-Lys-Phe-Lys-Pro-Leu-Gly-DLys-Gly-Glu-Val-Asn-Sta-Val-Ala-Glu-DPro-Lys(Chol)-NH2 x 4TFA (peptide)
peptide: YPKFKPLG[dK]GEVN[Sta]VAE[dP]K(Chol)-NH2
modifications: also: x 4TFA salt
B2: Tyr-Pro-Lys-Phe-Ile-Pro-Leu-Gly-Gly-Gly-Glu-Val-Asn-Sta-Val-Ala-Glu-DPro-Lys(Chol)-NH2 x 2TFA (peptide)
peptide: YPKFIPLGGGEVN[Sta]VAE[dP]K(Chol)-NH2
modifications: also: x 2TFA salt
B3: Tyr-Pro-Tyr-Phe-Ile-Lys-Leu-Gly-Gly-Gly-Glu-Val-Asn-Sta-Val-Ala-Glu-DPro-Lys(Chol)-NH2 x 2TFA (peptide)
peptide: YPYFIKLGGGEVN[Sta]VAE[dP]K(Chol)-NH2
modifications: also: x 2TFA salt
B4: Tyr-Pro-Tyr-Phe-Ile-Pro-Leu-PEG(3)-Glu-Val-Asn-MetSta-Val-Ala-Glu-DPhe-Lys(Chol)-NH2 x TFA (peptide)
peptide: YPYFIPL[PEG3]EVN[MetSta(3S,4S)]VAE[dF]K(Chol)-NH2
modifications: also: TFA salt
B5: Tyr-Pro-Tyr-Phe-Ile-Lys-Leu-Gly-DLys-Gly-Glu-Val-Asn-Sta-Val-Ala-Glu-DPro-Lys(Chol)-NH2 x 3TFA (peptide)
peptide: YPYFIKLG[dK]GEVN[Sta]VAE[dP]K(Chol)-NH2
modifications: also: x 3TFA salt
B6: Tyr-Pro-Tyr-Phe-Ile-Pro-Leu-Gly-Gly-Gly-Glu-Val-Asn-Sta-Asp-Ala-Glu-DPro-Lys(Chol)-NH2 x TFA (peptide)
peptide: YPYFIPLGGGEVN[Sta]DAE[dP]K(Chol)-NH2
modifications: also: x TFA salt
B7: Tyr-Pro-Tyr-Lys-Ile-Pro-Leu-Gly-DLys-Gly-Glu-Val-Asn-Sta-Val-Ala-Glu-DPro-Lys(Chol'ester')-NH2 x 3TFA (peptide)
peptide: YPYKIPLG[dK]GEVN[Sta]VAE[dP]K(Chol'ester')-NH2
modifications: also: x 3TFA salt
B8: Tyr-Pro-Tyr-Phe-Ile-Pro-Leu-Gly-Gly-Glu-Val-Asn-Sta-Val-Ala-Glu-DPro-Lys(Chol)-NH2 x TFA (peptide)
peptide: YPYFIPLGGEVN[Sta]VAE[dP]K(Chol)-NH2
modifications: also: x TFA salt
B9: Tyr-Pro-Tyr-Phe-Ile-Pro-Leu-Gly-Gly-DLys-Glu-Val-Asn-Sta-Val-Ala-Glu-DPro-Lys(Chol)-NH2 x 2TFA (peptide)
peptide: YPYFIPLGG[dK]EVN[Sta]VAE[dP]K(Chol)-NH2
modifications: also: x 2TFA salt
B10: Leu-Ile-Tyr-Phe-Pro-Tyr-Pro-Gly-Gly-Gly-Gly-Glu-Val-Asn-Sta-Val-Ala-Glu-DPro-Lys(Chol)-NH2 x TFA (peptide)
peptide: LIYFPYPGGGGEVN[Sta]VAE[dP]K(Chol)-NH2
modifications: also: x TFA salt
B11: Tyr-Pro-Tyr-Phe-Ile-Pro-Leu-Gly-Gly-Gly-Gly-Gly-Glu-Val-Asn-MetSta-Val-Ala-Glu-DPhe-Lys(Chol)-NH2 x TFA (peptide)
peptide: YPYFIPLGGGGGEVNXVAEFK
modifications: MetSta at 16; DPhe at 20; Lys(Chol) at 21; C-terminal NH2
B12: Tyr-Pro-Tyr-Phe-Ile-Pro-Leu-Gly-Gly-Gly-Glu-Val-Asn-Sta-Val-Ala-Glu-DPro-Lys(C14)-NH2 x TFA (peptide)
peptide: YPYFIPLGGGEVN[Sta]VAE[dP]K(C14)-NH2
modifications: also: x TFA salt
B13: Leu-Ile-Tyr-Phe-Pro-Tyr-Pro-Gly-Gly-Gly-Glu-Val-Asn-Sta-Val-Ala-Glu-DPro-Lys(Chol)-NH2 x TFA (peptide)
peptide: LIYFPYPGGGEVN[Sta]VAE[dP]K(Chol)-NH2
modifications: also: x TFA salt
B14: Tyr-Pro-Tyr-Phe-Ile-Pro-Leu-Gly-Gly-Gly-Glu-Val-Asn-Sta-Val-Ala-Glu-DPro-Lys(Chol'ether')-NH2 x TFA (peptide)
peptide: YPYFIPLGGGEVN[Sta]VAE[dP]K(Chol'ether')-NH2
modifications: also: x TFA salt
B15: Tyr-Pro-Tyr-Phe-Ile-Pro-Leu-Gly-Gly-Gly-Gly-Glu-Val-Asn-MetSta-Val-Ala-Glu-DPhe-Lys(Chol)-NH2 x TFA (peptide)
peptide: YPYFIPLGGGGEVNXVAEFK
modifications: MetSta at 15; DPhe at 19; Lys(Chol) at 20; C-terminal NH2
B16: Ac-Tyr-Pro-Tyr-Phe-Ile-Pro-Leu-Gly-Gly-Gly-Glu-Val-Asn-Sta-Val-Ala-Glu-DPro-Lys(Chol)-NH2 (peptide)
peptide: Ac-YPYFIPLGGGEVN[Sta]VAE[dP]K(Chol)-NH2
modifications: also: x TFA salt
B17: Tyr-Pro-Tyr-Phe-Ile-Pro-Leu-PEG(4)-Glu-Val-Asn-MetSta-Val-Ala-Glu-DPhe-Lys(Chol)-NH2 x TFA (peptide)
peptide: YPYFIPL[PEG4]EVN[MetSta(3S,4S)]VAE[dF]K(Chol)-NH2
modifications: also: TFA salt
B18: Tyr-Pro-Tyr-Phe-Ile-Pro-Leu-Gly-Gly-Gly-Glu-Val-Asn-Sta-Val-Ala-Glu-DPro-Lys(C12)-NH2 x TFA (peptide)
peptide: YPYFIPLGGGEVN[Sta]VAE[dP]K(Lauroyl)-NH2
modifications: also: x TFA salt
B19: Tyr-Pro-Tyr-Phe-Lys-Pro-Leu-PEG(4)-Glu-Val-Asn-Sta-Val-Ala-Glu-DPro-Lys(Chol)-NH2 x 2TFA (peptide)
peptide: YPYFKPL[PEG4]EVN[Sta]VAE[dP]K(Chol)-NH2
modifications: numbers in words are those of the source; also: 2TFA salt
B20: Tyr-Pro-Tyr-Phe-Ile-Pro-Leu-Gly-Gly-Gly-Glu-Val-Asn-Sta-Val-Ala-Glu-Phe-Lys(Chol)-NH2 x TFA (peptide)
peptide: YPYFIPLGGGEVN[Sta]VAEFK(Chol)-NH2
modifications: also: x TFA salt
B21: Tyr-Pro-Tyr-Phe-Ile-Pro-Leu-Gly-Gly-Lys-Glu-Val-Asn-Sta-Val-Ala-Glu-DPro-Lys(Chol)-NH2 x 2TFA (peptide)
peptide: YPYFIPLGGKEVN[Sta]VAE[dP]K(Chol)-NH2
modifications: also: 2TFA salt
B22: Tyr-Pro-Tyr-Phe-Ile-Pro-Leu-PEG(3)-Glu-Val-Asn-Sta-Val-Ala-Glu-DPro-Lys(Chol)-NH2 x TFA (peptide)
peptide: YPYFIPL[PEG3]EVN[Sta]VAE[dP]K(Chol)-NH2
modifications: also: TFA salt

The binders below were run against BACE1 enzyme (UniProt P56817 46-501, limits assumed) (assay: cell-based or functional assay).
Chain of BACE1 enzyme (P56817 46-501 limits assumed): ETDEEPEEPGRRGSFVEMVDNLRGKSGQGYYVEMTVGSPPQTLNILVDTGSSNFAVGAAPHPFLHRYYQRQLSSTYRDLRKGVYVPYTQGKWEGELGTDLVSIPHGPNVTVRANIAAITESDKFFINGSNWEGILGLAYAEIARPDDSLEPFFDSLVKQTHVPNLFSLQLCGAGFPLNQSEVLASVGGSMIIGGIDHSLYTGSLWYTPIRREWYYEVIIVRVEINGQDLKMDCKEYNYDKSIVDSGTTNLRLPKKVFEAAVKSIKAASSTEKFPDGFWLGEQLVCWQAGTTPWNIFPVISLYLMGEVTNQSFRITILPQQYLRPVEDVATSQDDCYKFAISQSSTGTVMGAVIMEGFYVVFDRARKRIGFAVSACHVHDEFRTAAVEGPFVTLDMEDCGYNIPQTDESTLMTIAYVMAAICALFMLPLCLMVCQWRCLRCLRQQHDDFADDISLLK
B1 was tested, and the “IC50, cellular Aβ-lowering assay (Aβ40 in supernatant of HEK293 cells expressing human APP695)” value (“IC50, cellular Aβ-lowering assay” below) was 0.0218 nM. B2 was tested, and the “IC50, cellular Aβ-lowering assay” value was 0.0135 nM. For B3, the “IC50, cellular Aβ-lowering assay” value was 0.0117 nM. B4 was tested, and the “IC50, cellular Aβ-lowering assay” value was 0.036 nM. In the case of B5, the “IC50, cellular Aβ-lowering assay” value is reported as 0.0176 nM. In the case of B6, the “IC50, cellular Aβ-lowering assay” value is reported as 18 nM. With B7 the “IC50, cellular Aβ-lowering assay” value was 2.3 nM. In the case of B8, the “IC50, cellular Aβ-lowering assay” value is reported as 0.27 nM. In the case of B9, the “IC50, cellular Aβ-lowering assay” value is reported as 0.118 nM. B10 was tested, and the “IC50, cellular Aβ-lowering assay” value was 0.28 nM. For B11, the “IC50, cellular Aβ-lowering assay” value was 0.07 nM. B12 was tested, and the “IC50, cellular Aβ-lowering assay” value was 140 nM. For B13, the “IC50, cellular Aβ-lowering assay” value was 0.22 nM. For B14, the “IC50, cellular Aβ-lowering assay” value was 0.0264 nM. In the case of B15, the “IC50, cellular Aβ-lowering assay” value is reported as 0.052 nM. B16 was tested, and the “IC50, cellular Aβ-lowering assay” value was 0.017 nM. With B17 the “IC50, cellular Aβ-lowering assay” value was 0.018 nM. In the case of B18, the “IC50, cellular Aβ-lowering assay” value is reported as 450 nM. For B19, the “IC50, cellular Aβ-lowering assay” value was 0.0235 nM. B20 was tested, and the “IC50, cellular Aβ-lowering assay” value was 0.19 nM. In the case of B21, the “IC50, cellular Aβ-lowering assay” value is reported as 0.0771 nM. In the case of B22, the “IC50, cellular Aβ-lowering assay” value is reported as 0.043 nM.
